According to patent publication US12145987B2, “Method for depleting cytotoxic T cells using an anti-LAG-3 antibody composition” (Daiichi Sankyo Company, Limited, priority 2017, dated 2024):

T1: human PHA blasts expressing LAG-3 (Homo sapiens, UniProt P18627)
T1 construct: To human PBMCs stimulated with 2 μg/mL of PHA (manufactured by Sigma-Aldrich) for three days; endogenous in cells; host or cells: human PBMCs stimulated with PHA for three days (PHA blasts)
T1 sequence (P18627 23-525): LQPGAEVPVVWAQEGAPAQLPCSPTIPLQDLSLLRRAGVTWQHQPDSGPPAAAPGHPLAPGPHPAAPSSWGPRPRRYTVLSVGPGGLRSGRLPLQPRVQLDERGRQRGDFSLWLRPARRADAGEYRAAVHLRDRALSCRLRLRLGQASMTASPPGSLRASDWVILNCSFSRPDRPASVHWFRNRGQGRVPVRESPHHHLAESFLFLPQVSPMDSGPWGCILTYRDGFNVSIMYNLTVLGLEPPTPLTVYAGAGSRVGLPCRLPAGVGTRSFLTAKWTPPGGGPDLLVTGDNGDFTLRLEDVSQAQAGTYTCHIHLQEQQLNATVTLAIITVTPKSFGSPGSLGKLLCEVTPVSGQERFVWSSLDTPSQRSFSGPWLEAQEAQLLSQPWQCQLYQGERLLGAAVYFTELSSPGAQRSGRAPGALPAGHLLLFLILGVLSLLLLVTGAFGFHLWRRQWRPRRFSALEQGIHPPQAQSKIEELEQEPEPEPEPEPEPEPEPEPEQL

T2: immunoglobulin-like domains of human LAG-3 (Homo sapiens, UniProt P18627)
T2 construct: expressed in transfected cells; host or cells: HEK293T cells, pcDNA3.1 plasmids, transient transfection
T2 sequence (P18627 263-525): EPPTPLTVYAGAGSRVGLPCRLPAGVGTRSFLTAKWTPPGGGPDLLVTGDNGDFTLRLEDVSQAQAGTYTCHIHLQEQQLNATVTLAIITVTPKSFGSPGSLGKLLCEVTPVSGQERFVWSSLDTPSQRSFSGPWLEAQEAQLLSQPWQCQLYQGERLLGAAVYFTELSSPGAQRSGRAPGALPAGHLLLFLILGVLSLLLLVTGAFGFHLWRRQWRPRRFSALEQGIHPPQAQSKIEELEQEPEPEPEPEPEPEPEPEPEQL

T3: immunoglobulin-like domains of human LAG-3 (Homo sapiens, UniProt P18627)
T3 construct: expressed in transfected cells; host or cells: HEK293T cells, pcDNA3.1 plasmids, transient transfection
T3 sequence (P18627 353-525): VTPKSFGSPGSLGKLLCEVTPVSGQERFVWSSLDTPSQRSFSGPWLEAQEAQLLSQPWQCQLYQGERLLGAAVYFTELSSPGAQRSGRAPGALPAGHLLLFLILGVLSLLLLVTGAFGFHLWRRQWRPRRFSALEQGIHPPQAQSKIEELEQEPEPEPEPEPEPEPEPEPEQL

B1: rLA204: anti-human LAG-3 rat monoclonal antibody; heavy chain variable region SEQ ID No: 2, light chain variable region SEQ ID No: 4 (antibody, listed as Rattus norvegicus, V domains shown)
VH: EVELVESGGGLVQPGRSMKLSCAASGFTFRTYGMAWVRQAPTKGLEWVASISTGGGSTYYRDSVKGRFTISRDNAKSTLYLQMDSLRSEDTATYYCTTDLINYPGIGGFAFWGQGTLVTVSS
VL: NIVMTQSPKSMSISVGDRVTMNCKASQNVYNNIAWYQQKPGKSPKLLIYYASNRYTGVPDRFTGSGSGTDFTLTIHSVQAEDAAFYYCQRLYNSPPTFGGGTKLELKRA
B2: rLA212: anti-human LAG-3 rat monoclonal antibody; heavy chain variable region SEQ ID No: 6, light chain variable region SEQ ID No: 8 (antibody, listed as Rattus norvegicus, V domains shown)
VH: EVQLVESGGGLVQPGRSLKLSCAASGFTYRSYVMAWVRQAPTRGLEWVASISTGGGNTYYRDSVKGRFTISRDNAKNTLYLQMDSLRSEDTATYYCAEDMSNSGYGLFDYWGQGVMVTVSS
VL: NIVMTQSPKSMSISVGDRVTMNCKAGQNVDNNIAWYQKKPGQSPKLLIYYASNRNTGVPDRFTGGGYGTDFTLTINSVQAEDAAFYYCQRISNSPYTFGAGTELELKRA
B3: rLA225: anti-human LAG-3 rat monoclonal antibody; heavy chain variable region SEQ ID No: 10, light chain variable region SEQ ID No: 12 (antibody, listed as Rattus norvegicus, V domains shown)
VH: EVQLVESGGGLVQPGRSMKLSCVASGFTFSNYYMAWVRQAPTKGLEWVASISTGGGNTYYRDSVKGRFTISRDNAKSTLYLQMDSLRSEDTATYYCARPPYGYNYGWFTYWGQGTLVTVSS
VL: DIQMTQSPASLSASLGETVTIECRASEDIHNGLVWYQQKPGKSPQLLIYNANSMHTGVPSRFSGSGSGTQYSLKINSLQSEDVASYFCQQYYNYPRTFGGGTKLELKRA
B4: rLA869: anti-human LAG-3 rat monoclonal antibody; heavy chain variable region SEQ ID No: 14, light chain variable region SEQ ID No: 16 (antibody, listed as Rattus norvegicus, V domains shown)
VH: EVQLVESGGGLVQPGRSLKLSCAASGFTYRTYVMAWVRQGPTQGLEWVASISTGGVSTYYRDSVKGRFTISRDNAKNTLYLQMDSLRSEDTATYYCAKDMLNGYNSQGLFDYWGQGVMVTVSS
VL: NIVMTQSPKSMSISVGDRVTMNCRASQNVDNTIAWYQQKPGQSPKLLIYFASDRYTGVPDRFTGGGYGTDFTLTINSVQAEDAAFYYCQRIYNSPLTFGSGTKLEIRRA
B5: rLA1264: anti-human LAG-3 rat monoclonal antibody; heavy chain variable region SEQ ID No: 18, light chain variable region SEQ ID No: 20 (antibody, listed as Rattus norvegicus, V domains shown)
VH: EVQLVESGGGLVQPGRSLKLSCAASGFTFSSYYMAWVRQAPTKGLEWVAYISNGGYSTYYRDSVKGRFTISRENAKSTLYLQMDSLRSEDTATYYCTITDHSGYRFTYWGQGTLVTVSS
VL: DIQMTQSPSLLSASVGDRVTLSCKASQSIYNSLAWYQQKLGEAPKLLIYDANSLQTGIPSRFSGSGSGTDFTLTISSLQPEDVATYFCQKYYSGNTFGAGTKLELKRA

Experiments:
[1] = target: T1, human PHA blasts expressing LAG-3; experiment: Binding activity to activated human T cells (PHA blasts) by flow cytometry; conditions: mean fluorescence intensity
Method: It was further confirmed by flow cytometry that the antibody produced by the hybridomas determined to be positive by the Cell-ELISA in Example 1)-3 binds to PHA (phytohemagglutinin) activated human T cells (PHA blasts), a more physiologically relevant cell type expressing LAG-3. To human PBMCs stimulated with 2 μg/mL of PHA (manufactured by Sigma-Aldrich) for three days, was added a hybridoma culture supernatant for suspension, followed by reaction at 4° C. for 30 minutes. After washing with a FACS buffer (PBS, 0.1% BSA, and 0.1% sodium azide), a secondary antibody such as an Anti-Rat IgG PE conjugate (manufactured by Jackson ImmunoResearch Laboratories, Inc.) diluted 200-fold with a FACS buffer comprising a LIVE/DEAD Fixable Dead Cell Stain Kit-near-IR fluorescent reactive dye (manufactured by Invitrogen Corp.) was added thereto for suspension, followed by standing at 4° C. for 30 minutes. After washing with a FACS buffer, the cells were resuspended in PBS containing 1 to 2% paraformaldehyde, followed by detection using a flow cytometer (CantoII: manufactured by Becton, Dickinson and Company or FC500: manufactured by Beckman Coulter Inc.). The data was analyzed using FlowJo (manufactured by Tree Star Inc). After removal of the LIVE/DEAD Fixable Dead Cell Stain Kit-near-IR fluorescent reactive dye-positive dead cells by gating, a histogram of the fluorescence intensity of the living cells was plotted.
The binding activity of the rat anti-human LAG-3 antibodies rLA204, rLA212, rLA225, rLA869, and rLA1264 purified by the method described in Example 1)-7 to activated human T cells was investigated.

[2] = target: T2, immunoglobulin-like domains of human LAG-3; experiment: Identification of epitope: flow cytometry on HEK293T cells expressing human LAG-3 domain deletion constructs; assay type: binding; conditions: FLAG-tagged 263-525, HEK293T cells, 10 μg/mL
Source text: (§1) Based on the fact that the rat anti-LAG-3 antibodies rLA204, rLA212, rLA225, rLA869, and rLA1264 are antibodies developed using a mutant deficient in the 1st and 2nd domains (which will be hereinafter referred to respectively as domains 1 and 2) from the N terminus out of the four immunoglobulin-like domains present in the extracellular region of LAG-3 as an immunogen, in order to reveal which of the remaining 3rd and 4th domains (which will be hereinafter referred to respectively as domains 3 and 4) from the N terminus these antibodies bind to, binding of the obtained rat anti-LAG-3 antibodies to cells expressing domains 3 and 4, or only domain 4, was investigated by flow cytometry.
(§2) Each expression plasmid (cloned into pcDNA3.1) of either domain 3 and onwards (263-525) or domain 4 and onwards (353-525) of human LAG-3 with a FLAG tag sequence (DYKDDDDK) (SEQ ID NO:87) added to the N terminus was introduced into HEK293T cells using Lipofectamine 2000 (manufactured by Life Technologies Corp.), and the cells were cultured for 1 day and then recovered, to investigate the binding activity of the antibodies by flow cytometry according to the method described in Example 1)-4.
(§3) In addition to the two types of constructs in FIG. 5A, expression plasmids were used of domain 2 and onwards (amino acid positions 173-525 of the human LAG-3 amino acid sequence in SEQ ID No: 86, FIG. 101) of human LAG-3 with a FLAG tag sequence (DYKDDDDK) (SEQ ID NO:87) added to the N terminus and the full length of human LAG-3 (both were constructed using pcDNA3.1; the nucleotide sequence encoding the amino acid sequence of human LAG-3 is described in SEQ ID No: 85, FIG. 100).

[3] = target: T3, immunoglobulin-like domains of human LAG-3; experiment: as above; assay type: binding; conditions: FLAG-tagged 353-525, HEK293T cells, 10 μg/mL
Source text: as §1, §2, §3

[4] = system: immunoglobulin-like domains of human LAG-3; experiment: as above; assay type: binding; conditions: concluded from binding to deletion constructs
Source text: as §1, §2, §3

Row | Molecule | binding to activated human T cells (PHA blasts) [1] | binding to cells expressing the construct containing domains 3 and 4 of human LAG-3 [2] | binding to cells expressing the construct containing only domain 4 of human LAG-3 [3] | immunoglobulin-like domain of LAG-3 bound (epitope) [4]
1 | B1 | bound to PHA blasts prepared as in vitro activated human T cells in a concentration-dependent manner | bound | none of them bound | domain 3
2 | B2 | bound to PHA blasts prepared as in vitro activated human T cells in a concentration-dependent manner | bound | none of them bound | domain 3
3 | B3 | bound to PHA blasts prepared as in vitro activated human T cells in a concentration-dependent manner | bound | none of them bound | domain 3
4 | B4 | bound to PHA blasts prepared as in vitro activated human T cells in a concentration-dependent manner |  |  | domain 3
5 | B5 | bound to PHA blasts prepared as in vitro activated human T cells in a concentration-dependent manner |  |  | domain 3
